Results: US20170298119A1 (VISTERRA, published 2017)
Substitutions are numbered along the chain they refer to. Read-outs that look alike come from different tables or passages of the source.

B1: ZV-67 (antibody, V domains shown)
VH: QVQLQQSGTGLARPGASVKLSCKASGYTFTSYGISWVTQRAGQGLEWIGVIYPRSGNTYYNEKFRGKATLTADKSSSSAYMELRGLTAEDSAVYFCARENYGSVYWGQGTTLTVSS
VL: DIVMTQSQKFMSTSVGDRVSITCKASQNVGTAVAWYQQKPGQSPKLLIYSASNRYTGVPDRFTGSGSGTDFTLTISNMQSEDLADYFCQQFSSYPYTFGGGTKLEIK
B2: ZV-54 (antibody, V domains shown)
VH: B1 VH with T9V, A16T, T28S, S31T, A41P, G56N, K63R, M81L
VL: B1 VL with S20T, N28S, Q37H, S76T, N77Y, S93N, Y96F
notes: also called ZWT; Rec54
B3: FcMut186 (antibody)
chain: ASTKGPSVFPLAPSSKSTSGGTAALGCLVKDYFPEPVTVSWNSGALTSGVHTFPAVLQSSGLYSLSSVVTVPSSSLGTQTYICNVNHKPSNTKVDKKVEPKSCDKTHTCPPCPAPELLGGPSVFLFPPKPKDTLMISRDPEVTCVVVDVSHEDPEVKFNWYVDGVEVHNAKTKPREEQYNSTYRVVSVLRVLHVDWLNGKEYKCKVSNKALPAPIEKTISKAKGQPREPQVYTLPPSRDELTKNQVSLTCLVKGFYPSDIVVEWESNGQPENNYKTTPPVLDSDGSFFLYSKLTVDKSRWQQGNVFSCSVMHEALHNHYTQKSLSLSPGK
B4: FcMut171 (antibody)
chain: B3 chain with N169D, V261A
B5: FcMut229 (antibody)
chain: B3 chain with H168D

Legend:
[1] = target: T1, wild type ZIKV EDIII displayed on yeast (yeast; Zika virus); assay: yeast display of wild type ZIKV EDIII, flow cytometry (Alexa-647 MFI) over hybridoma supernatant dilutions; KD from the 50% maximal binding dilution and the Octet-quantified supernatant concentration
T1 construct: also called WT EDIII
T1 sequence (P32781 19-87): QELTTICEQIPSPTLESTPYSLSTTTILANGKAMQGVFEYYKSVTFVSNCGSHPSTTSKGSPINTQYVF

DENV EDIII protein = target: T2, DENV EDIII protein (dengue virus, UniProt P17763 573-679); assay: ELISA of Example 7 on coated DENV EDIII, where p-1318 says 'minimal cross-reactivity with the DENV EDIII protein'
T2 construct: domain: EDIII; also called EDIII-DV1; dengue virus E protein domain III
T2 sequence (P17763 573-679 limits assumed): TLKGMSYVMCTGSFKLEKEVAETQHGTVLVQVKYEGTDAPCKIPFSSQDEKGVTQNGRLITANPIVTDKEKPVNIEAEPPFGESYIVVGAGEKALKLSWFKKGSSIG

[2] = target: T1, wild type ZIKV EDIII displayed on yeast
recombinant FcRn protein = target: T3, recombinant FcRn protein (Homo sapiens (Human), UniProt P55899 24-297; P61769 21-119); assay: BLI (Octet): antibody on anti-CH1 biosensors, recombinant FcRn at pH 6.0; fold change against wild type Motavizumab
T3 construct: also called neonatal Fc receptor; copies: 1 + 1
T3 sequence (P55899 24-297 limits assumed, chain 1 of 2): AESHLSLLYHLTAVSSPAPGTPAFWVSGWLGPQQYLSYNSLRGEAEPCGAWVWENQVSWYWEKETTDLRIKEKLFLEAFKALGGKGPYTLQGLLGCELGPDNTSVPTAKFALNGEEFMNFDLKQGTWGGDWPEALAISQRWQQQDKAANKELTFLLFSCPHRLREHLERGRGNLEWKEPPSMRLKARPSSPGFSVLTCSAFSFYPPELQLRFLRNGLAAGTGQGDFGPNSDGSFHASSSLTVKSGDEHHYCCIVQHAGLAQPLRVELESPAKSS
T3 sequence (P61769 21-119 limits assumed, chain 2 of 2): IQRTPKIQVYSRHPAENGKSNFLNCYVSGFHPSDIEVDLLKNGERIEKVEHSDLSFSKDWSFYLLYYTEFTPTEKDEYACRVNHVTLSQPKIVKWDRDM

Binder	Kd [1] [nM]	binding result (DENV EDIII protein)	Kd [2] [nM]	Kd (fold increase) (recombinant FcRn protein) [fold]	koff (fold decrease) (recombinant FcRn protein) [fold]	kon (fold increase) (recombinant FcRn protein) [fold]
B1	0.65	–	–	–	–	–
B2	–	no binding	0.74	–	–	–
B3	–	–	–	10.3	3.5	2.7
B4	–	–	–	8.2	3.5	2
B5	–	–	–	5.6	4.3	1.1
